Substitutions are numbered along the chain they refer to.
B1: Her3/MetSS_KHSS_PreSci (protease cleavage site = prescission cleavage site), not cleaved (restricted form) (bispecific antibody, human IgG1, kappa)
heavy 1: not shown
heavy 2: not shown
light: DIQMTQTTSSLSASLGDRVTISCRARQDISNYLNWYQRKPDGTVKLLIYYTSRLHSGVPSRFSGSGSGTDYSLTISNLEQEDIATYFCQQGNTFPWTFGGGTKLEIKRTVAAPSVFIFPPSDEQLKSGTASVVCLLNNFYPREAKVQWKVDNALQSGNSQESVTEQDSKDSTYSLSSTLTLSKADYEKHKVYACEVTHQGLSSPVTKSFNRGEC
notes: Trivalent: whole anti-Her3 IgG (knobs-into-holes) with one disulfide-stabilized anti-cMet Fv tethered to both CH3 C-termini; Constructs were designed with a leader peptide
B2: Her3/MetSS_KHSS_M3 (MMP 2 and 9 cleavage site - variant 3), not cleaved (bispecific antibody, human IgG1, kappa)
heavy 1: not shown
heavy 2: not shown
light: B1 light
notes: Trivalent anti-Her3 IgG with restricted anti-cMet dsFv
B3: Her3/MetSS_KHSS_M1 (MMP 2 and 9 cleavage site - variant 1), not cleaved (bispecific antibody, human IgG1, kappa)
heavy 1: not shown
heavy 2: not shown
light: B1 light
notes: as for B2
B4: Her3/MetSS_KHSS_M2 (MMP 2 and 9 cleavage site - variant 2), not cleaved (bispecific antibody, human IgG1, kappa)
heavy 1: not shown
heavy 2: not shown
light: B1 light
notes: as for B2
B5: Her3/MetSS_KHSS_U (protease cleavage site = uPA cleavage site), not cleaved (bispecific antibody, human IgG1, kappa)
heavy 1: not shown
heavy 2: not shown
light: B1 light
notes: as for B2
B6: Her3/MetSS_KHSS_M1 after protease cleavage (bispecific antibody)
heavy 1: not shown
heavy 2: not shown
chain: MLSQSGGGGSGGGGSDIQMTQSPSSLSASVGDRVTITCKSSQSLLYTSSQKNYLAWYQQKPGKAPKLLIYWASTRESGVPSRFSGSGSGTDFTLTISSLQPEDFATYYCQQYYAYPWTFGCGTKVEIKR
light: B1 light
notes: HC2 is cut in the connector; the VL fragment stays disulfide-linked to VH
B7: Her3/MetSS_KHSS_M2 after protease cleavage (MMP-2 processed) (bispecific antibody)
heavy 1: not shown
heavy 2: not shown
chain: B6 chain with M1L, L2W, S3A
light: B1 light
notes: as for B6
B8: Her3/MetSS_KHSS_M3 after protease cleavage (bispecific antibody)
heavy 1: not shown
heavy 2: not shown
chain: B6 chain with M1I, L2A, S3G
light: B1 light
notes: as for B6

Columns and labels:
[1] = target: T1, Her3 on Her3-expressing, cMet negative T47D cells / Her3-positive cancer cells (UniProt P21860 20-1342, limits assumed); experiment: FACS on live T47D cells (cMet-/Her3+); x axis fluorescence (log), y axis % of Max; antibody concentration not shown
T1 construct: whole, on cells

[2] = target: T2, cMet (antigen in the SPR measurements) (UniProt P08581 25-932, limits assumed); experiment: SPR
[3] = target: T2, cMet (antigen in the SPR measurements); experiment: SPR, KD uncleaved against KD after protease cleavage
[4] = target: T2, cMet (antigen in the SPR measurements); experiment: SPR; not cleaved; dsFv sterically restricted
[5] = target: HER3 (antigen in the SPR measurements) (UniProt P21860 20-643, limits assumed); experiment: SPR
[6] = target: T2, cMet (antigen in the SPR measurements); experiment: SPR, cleaved against restricted form
[7] = target: T2, cMet (antigen in the SPR measurements); experiment: SPR; after protease (MMP2/9) cleavage; dsFv unleashed

Sequence of HER3 (antigen in the SPR measurements) (P21860 20-643 limits assumed): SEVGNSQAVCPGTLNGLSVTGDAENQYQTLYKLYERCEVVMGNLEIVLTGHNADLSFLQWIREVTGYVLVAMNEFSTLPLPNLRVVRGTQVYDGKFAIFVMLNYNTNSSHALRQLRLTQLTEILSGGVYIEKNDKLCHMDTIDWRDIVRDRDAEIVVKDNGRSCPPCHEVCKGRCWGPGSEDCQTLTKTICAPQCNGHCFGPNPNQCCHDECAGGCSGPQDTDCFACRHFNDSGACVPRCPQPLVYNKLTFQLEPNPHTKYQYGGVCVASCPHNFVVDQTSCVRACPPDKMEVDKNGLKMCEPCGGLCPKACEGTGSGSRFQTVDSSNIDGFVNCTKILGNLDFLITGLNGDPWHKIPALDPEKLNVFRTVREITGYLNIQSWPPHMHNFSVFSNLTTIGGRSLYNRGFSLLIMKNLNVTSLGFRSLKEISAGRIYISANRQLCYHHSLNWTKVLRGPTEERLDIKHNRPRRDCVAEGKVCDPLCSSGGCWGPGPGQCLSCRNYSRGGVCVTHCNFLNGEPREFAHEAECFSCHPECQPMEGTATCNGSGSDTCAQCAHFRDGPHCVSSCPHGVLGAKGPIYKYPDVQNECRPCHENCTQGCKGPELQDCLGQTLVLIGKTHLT
T2 sequence (P08581 25-932 limits assumed): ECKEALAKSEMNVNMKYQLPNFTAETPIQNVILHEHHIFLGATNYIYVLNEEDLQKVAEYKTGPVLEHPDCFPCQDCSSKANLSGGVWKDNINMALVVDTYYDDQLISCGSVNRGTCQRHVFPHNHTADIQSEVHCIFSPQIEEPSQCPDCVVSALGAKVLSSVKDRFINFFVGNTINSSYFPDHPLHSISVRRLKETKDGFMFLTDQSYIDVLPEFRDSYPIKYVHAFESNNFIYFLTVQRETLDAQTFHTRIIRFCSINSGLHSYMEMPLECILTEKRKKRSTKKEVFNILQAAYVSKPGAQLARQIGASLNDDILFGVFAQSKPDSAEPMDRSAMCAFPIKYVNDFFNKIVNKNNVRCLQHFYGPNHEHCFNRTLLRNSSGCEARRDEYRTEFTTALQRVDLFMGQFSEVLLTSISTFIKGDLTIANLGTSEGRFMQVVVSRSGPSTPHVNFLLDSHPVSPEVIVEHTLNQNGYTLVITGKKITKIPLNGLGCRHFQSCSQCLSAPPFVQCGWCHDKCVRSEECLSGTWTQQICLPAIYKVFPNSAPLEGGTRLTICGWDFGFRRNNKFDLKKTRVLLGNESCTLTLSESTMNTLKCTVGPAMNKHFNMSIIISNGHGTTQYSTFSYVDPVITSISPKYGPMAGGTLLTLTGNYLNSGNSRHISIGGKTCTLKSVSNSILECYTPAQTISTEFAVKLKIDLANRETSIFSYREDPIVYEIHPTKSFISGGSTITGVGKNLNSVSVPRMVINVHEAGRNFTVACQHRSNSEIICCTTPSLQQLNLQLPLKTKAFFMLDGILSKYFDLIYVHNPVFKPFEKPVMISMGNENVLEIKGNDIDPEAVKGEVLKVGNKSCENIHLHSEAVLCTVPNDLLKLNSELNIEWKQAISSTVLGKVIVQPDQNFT
T1 sequence (P21860 20-1342 limits assumed, stated change not applied): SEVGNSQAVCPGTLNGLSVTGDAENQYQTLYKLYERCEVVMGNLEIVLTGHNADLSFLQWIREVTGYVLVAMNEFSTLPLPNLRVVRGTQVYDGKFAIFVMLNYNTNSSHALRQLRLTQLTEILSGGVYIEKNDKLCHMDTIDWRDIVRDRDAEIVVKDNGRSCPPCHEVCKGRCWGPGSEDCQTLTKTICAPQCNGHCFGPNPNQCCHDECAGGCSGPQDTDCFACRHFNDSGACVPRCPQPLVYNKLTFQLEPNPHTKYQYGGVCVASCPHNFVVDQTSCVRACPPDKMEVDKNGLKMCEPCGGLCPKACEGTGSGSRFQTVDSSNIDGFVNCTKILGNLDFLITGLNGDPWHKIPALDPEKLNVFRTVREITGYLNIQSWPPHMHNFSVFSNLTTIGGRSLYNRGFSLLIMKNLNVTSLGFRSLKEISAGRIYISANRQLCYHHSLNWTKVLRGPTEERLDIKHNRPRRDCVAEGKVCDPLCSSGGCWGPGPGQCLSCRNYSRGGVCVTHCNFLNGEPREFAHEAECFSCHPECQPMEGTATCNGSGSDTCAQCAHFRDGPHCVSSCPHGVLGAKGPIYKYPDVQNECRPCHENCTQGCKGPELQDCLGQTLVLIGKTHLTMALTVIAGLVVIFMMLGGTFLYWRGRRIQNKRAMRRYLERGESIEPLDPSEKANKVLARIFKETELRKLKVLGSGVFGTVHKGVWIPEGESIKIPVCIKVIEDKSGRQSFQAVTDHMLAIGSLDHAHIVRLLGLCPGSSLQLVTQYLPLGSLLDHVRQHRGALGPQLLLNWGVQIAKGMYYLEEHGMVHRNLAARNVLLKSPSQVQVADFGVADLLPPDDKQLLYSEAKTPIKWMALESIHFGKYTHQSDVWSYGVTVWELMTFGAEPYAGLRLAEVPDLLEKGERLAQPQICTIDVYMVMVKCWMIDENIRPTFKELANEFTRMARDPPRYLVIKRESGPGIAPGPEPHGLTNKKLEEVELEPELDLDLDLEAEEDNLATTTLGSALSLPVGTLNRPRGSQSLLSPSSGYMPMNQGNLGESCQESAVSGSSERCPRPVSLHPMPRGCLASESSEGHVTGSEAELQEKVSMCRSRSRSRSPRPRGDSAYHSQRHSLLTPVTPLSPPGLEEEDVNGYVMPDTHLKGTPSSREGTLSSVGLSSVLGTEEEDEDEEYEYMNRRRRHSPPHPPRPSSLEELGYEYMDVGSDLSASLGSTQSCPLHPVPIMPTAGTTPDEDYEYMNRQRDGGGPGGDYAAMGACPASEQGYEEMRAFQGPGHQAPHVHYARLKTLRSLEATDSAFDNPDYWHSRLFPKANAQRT

Row | Binder | binding result [1] | Kd [2] [nM] | koff [2] [s⁻¹] | kon [2] [M⁻¹ s⁻¹] | reduced binding affinity as compared to after the protease cleavage [3] [times] | Kd [4] [nM] | Kd [5] [nM] | koff [5] [s⁻¹] | kon [5] [M⁻¹ s⁻¹] | fold improvement of affinity by MMP processing [6] [fold] | Kd [7] [nM]
1 | B1 | binds | – | – | – | – | – | – | – | – | – | –
2 | B2 | – | 88.6 | 0.000263 | 2970 | 17 | – | – | – | – | – | –
3 | B3 | – | – | 0.000374 | 151 | 350 | 2480 | – | – | – | – | –
4 | B4 | – | 114 | 0.000417 | 3650 | 16 | – | 1.92 | 0.000324 | 169000 | – | –
5 | B5 | – | 20 | 0.000193 | 9670 | 6 | – | 2.34 | 0.000372 | 159000 | – | –
6 | B6 | – | – | 0.00015 | 21200 | – | – | – | – | – | > 5 | 7.08
7 | B7 | – | 7.14 | 0.000141 | 19700 | – | – | 1.85 | 0.000327 | 177000 | > 5 | –
8 | B8 | – | 5.2 | 0.000105 | 20100 | – | – | – | – | – | > 5 | –

From patent publication US20130266568A1 (Hoffmann-La Roche, published 2013)
